Test results reported in publication PMC6017014, “VpStyA1/VpStyA2B of Variovorax paradoxus EPS: An Aryl Alkyl Sulfoxidase Rather than a Styrene Epoxidizing Monooxygenase” (Molecules : A Journal of Synthetic Chemistry and Natural …, 2018).
Each block holds one compound with its values, some of them ahead of it.

What was measured:
VpStyA2B = target: T1, VpStyA2B (Variovorax paradoxus, UniProt E6V139); assay: NADH consumption at […] nm, Michaelis-Menten fit; type: biochemical; settings: linker AREAV (408-412) replaced/extended; NADH in excess, concentrations as for wild type; 20 mM Tris-HCl pH 7.5, 30 °C; read-out: Acceptor FAD ^1 / Km
T1 construct: gene styA2B

[1] = test system: Cc1cc2nc3c(=O)[nH]c(=O)nc-3n(C[C@H](O)[C@H](O)[C@H](O)COP(=O)(O)OP(=O)(O)OC[C@H]3O[C@@H](n4cnc5c(N)ncnc54)[C@H](O)[C@@H]3O)c2cc1C; assay: purified protein; type: biochemical, Variovorax paradoxus; settings: 20 mM Tris-HCl pH 7.5, 30 °C
[2] = test system: Cc1cc2nc3c(=O)[nH]c(=O)nc-3n(C[C@H](O)[C@H](O)[C@H](O)COP(=O)(O)O)c2cc1C; assay: purified protein; type: biochemical, Variovorax paradoxus; settings: NADH 164 µM, FMN 4.1-90.2 µM, 20 mM Tris-HCl pH 7.5, 30 °C
[3] = 408-HHHHH linker mutant, NADH in excess, concentrations as for wild type
[4] = 408-TIVVV linker mutant, NADH in excess, concentrations as for wild type
[5] = 408-WYHHH linker mutant, NADH in excess, concentrations as for wild type
[6] = 408-AAAAA linker mutant, NADH in excess, concentrations as for wild type

T1 sequence (E6V139 1-578): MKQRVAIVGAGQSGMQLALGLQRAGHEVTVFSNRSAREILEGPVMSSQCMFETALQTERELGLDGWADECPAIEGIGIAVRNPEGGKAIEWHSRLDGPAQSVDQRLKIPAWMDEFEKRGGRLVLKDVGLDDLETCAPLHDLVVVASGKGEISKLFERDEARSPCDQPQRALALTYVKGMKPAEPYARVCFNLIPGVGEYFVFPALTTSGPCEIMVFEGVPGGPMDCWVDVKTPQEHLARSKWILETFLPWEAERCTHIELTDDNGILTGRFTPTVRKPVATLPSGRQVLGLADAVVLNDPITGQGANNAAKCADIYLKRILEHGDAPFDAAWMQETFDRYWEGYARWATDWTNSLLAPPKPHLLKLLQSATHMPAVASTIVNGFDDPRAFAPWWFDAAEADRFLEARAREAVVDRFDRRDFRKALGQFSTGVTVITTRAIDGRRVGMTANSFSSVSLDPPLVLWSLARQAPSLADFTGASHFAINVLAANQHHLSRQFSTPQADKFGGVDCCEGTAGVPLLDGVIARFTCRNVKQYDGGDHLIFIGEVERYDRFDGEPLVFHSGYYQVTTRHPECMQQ

- Km (VpStyA2B): 7.4 µM
Compound: Cc1cc2nc3c(=O)[nH]c(=O)nc-3n(C[C@H](O)[C@H](O)[C@H](O)COP(=O)(O)OP(=O)(O)OC[C@H]3O[C@@H](n4cnc5c(N)ncnc54)[C@H](O)[C@@H]3O)c2cc1C [FAD]

Compound: VpStyA2B (Variovorax paradoxus EPS)
- Km ([1]; NADH 164 µM, FAD 6.3-78.8 µM): 33.6 ± 4.0 µM
- Vmax ([1]; NADH 164 µM, FAD 6.3-78.8 µM): 20.2 µmol/min/mg
- kcat ([1]; NADH 164 µM, FAD 6.3-78.8 µM): 22.3 ± 1.1 s⁻¹
- kcat/Km ([1]; NADH 164 µM, FAD 6.3-78.8 µM): 640000 M⁻¹ s⁻¹
- Km [2]: 45.9 ± 6.8 µM
- Vmax [2]: 26 µmol/min/mg
- kcat [2]: 28.7 ± 1.9 s⁻¹
- kcat/Km [2]: 570000 M⁻¹ s⁻¹

Compound: VpStyA2B (Variovorax paradoxus EPS; A408H/A411H/E410H/R409H/V412H)
- Km [1, 3]: 14.5 µM
- Vmax [1, 3]: 3.1 µmol/min/mg
- kcat/Km [1, 3]: 230000 M⁻¹ s⁻¹

Compound: VpStyA2B (Variovorax paradoxus EPS; A408T/A411V/E410V/R409I)
- Km [1, 4]: 5.1 µM
- Vmax [1, 4]: 3.1 µmol/min/mg
- kcat/Km [1, 4]: 650000 M⁻¹ s⁻¹

Compound: VpStyA2B (Variovorax paradoxus EPS; A408W/A411H/E410H/R409Y/V412H)
- Km [1, 5]: 3.2 µM
- Vmax [1, 5]: 6.9 µmol/min/mg
- kcat/Km [1, 5]: 2.3e+06 M⁻¹ s⁻¹

Compound: VpStyA2B (Variovorax paradoxus EPS; E410A/R409A/V412A)
- Km [1, 6]: 1.8 µM
- Vmax [1, 6]: 8.8 µmol/min/mg
- kcat/Km [1, 6]: 5.21e+06 M⁻¹ s⁻¹
